Results on 13 molecules are retold here after patent US20260209316A1 (US Dept. of Health and Human Services, published 2026).

The target of assay [1] is T1, full-length Sudan GP (GPFL) (Sudan virus (SUDV), UniProt Q7T9D9 33-650).
T1 construct: also called Sudan GPFL; GP(S)FL
T1 sequence: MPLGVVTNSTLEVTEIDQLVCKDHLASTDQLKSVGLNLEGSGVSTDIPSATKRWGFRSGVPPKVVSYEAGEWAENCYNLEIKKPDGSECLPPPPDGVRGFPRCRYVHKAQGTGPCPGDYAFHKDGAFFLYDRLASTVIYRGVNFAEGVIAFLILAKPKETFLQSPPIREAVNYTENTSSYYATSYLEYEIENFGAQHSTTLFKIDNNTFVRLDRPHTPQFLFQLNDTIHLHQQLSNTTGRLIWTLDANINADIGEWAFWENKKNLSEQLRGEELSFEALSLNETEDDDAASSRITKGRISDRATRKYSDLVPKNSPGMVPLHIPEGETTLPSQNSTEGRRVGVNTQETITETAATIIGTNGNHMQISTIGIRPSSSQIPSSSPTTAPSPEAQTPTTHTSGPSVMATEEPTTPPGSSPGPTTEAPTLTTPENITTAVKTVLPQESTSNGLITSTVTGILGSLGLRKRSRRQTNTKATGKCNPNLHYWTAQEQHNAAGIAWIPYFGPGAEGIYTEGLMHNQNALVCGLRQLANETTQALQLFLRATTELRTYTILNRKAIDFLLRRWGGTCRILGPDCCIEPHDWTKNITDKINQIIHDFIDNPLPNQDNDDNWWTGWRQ
The assay is described as follows: BLI, Fab, pH 7.4.

The target of assay [2] is T1, full-length Sudan GP (GPFL). The assay is described as follows: BLI, Fab, pH 5.3.
Assay [3] shares this target. The assay is described as follows: BLI, Fab, pH 7.4. This is another data set of the same source.
For assay [4] the target is unchanged. Nature of the assay: BLI, Fab, pH 5.3. The source holds these as a separate data set.

B1: Fab generated from 528S (Fab, V domains shown)
VH: EVQLAESGGGVVQPGRSLRLSCAASGFTFNSYGMHWVRQAPGKGLEWVAVIWDDGSKKYYADSVKGRFTISRDNSKNTLFLQMNSLRAEDTAVYYCARETIMFTFGEVIVSSRDNYYMDVWGKGTTVTVSS
VL: EIVLTQSPATLSLSPGERATLSCRASQSVSNYLAWYQQKPGQAPRLLIYDASTRAIGIPARFSGVGSGTDFTLTISSLEPEDFAVYYCQQRSNWPPLTFGGGTKVEIK
notes: also called 528S Fab
As to B1, in assay [1], the Kd was 9.11 nM, the koff stood at 0.000387 s⁻¹ and the kon stood at 42500 M⁻¹ s⁻¹. In assay [2], this molecule displayed an equilibrium dissociation constant (Kd) of 5.58 nM, a koff of 4.65e-05 s⁻¹ and a kon of 8330 M⁻¹ s⁻¹.

B2: Fab generated from 102S (Fab, V domains shown)
VH: EVQLVESGGGLVQPGGSLRLSCSASGFTFHSYDMNWARQAPGKGLEWVSEISSSGQSKNYADSVRGRFTISRDNAKNSLYLQINSLRSEDTAVYYCARVGFVAKFGSDFSITHGTYYLDYWGQGTLVTVSS
VL: QLVLTQSPATLSLSPGERATLSCRASQSVSNYLAWYQQKPGQAPRLLIYDASNRAPGVPARFSGSGSGTDFSLTISSLEPEDFAVYYCLQRSNWPPWTFGQGTKVEIK
In assay [1], B2 displayed a dissociation constant (Kd) of 91.2 nM, a dissociation rate constant (koff) of 0.00504 s⁻¹ and an on-rate constant (kon) of 55300 M⁻¹ s⁻¹.

B3: Fab generated from 203S (Fab, V domains shown)
VH: QVQLVQSGAEVKKPGSSVKVSCKASGGTFSSYAISWVRQAPGQGLEWLGRILPALGLANYAQKYQDRVKITADKSTSTAYMELSRLGSEDTAVYYCARDRWVGAARRGQYFDYWGQGTQVTVSS
VL: DIQMTQSPATLSASVGDRVTITCRASQSIGTWLAWYQQKPGKAPKLLIYDASSLESGVPPRFSGSGSETEFTLTISSLQPDDFATYYCHQYKSYSYTFGQGTKLEIK
notes: also called 203S Fab
In assay [1], B3 returned a Kd of 26.1 nM, a koff of 0.000376 s⁻¹ and an on-rate (kon) of 14400 M⁻¹ s⁻¹. For the same molecule, in assay [2], the Kd was found to be 118 nM, the koff turned out to be 0.00046 s⁻¹ and the kon came to 3880 M⁻¹ s⁻¹.

B4: Fab generated from 382S (Fab, V domains shown)
VH: QVQLVQSGAEVKKPGSSVKVSCKASGGTFSNYGISWVRQAPGQGLEWMGRNIPIIGIANYAQKFQDRVTITADKSTSTVFMELRSLRYEDTAVYYCARDPLAARRGNWFDPWGQGTLVTVSS
VL: DIQMTQSPSTLSASVGDRVTITCRASQSVSSWLAWYQQKPGKAPKLLIYDASTLQSGVPSRFSGSGSGTEFTLTISSLQPDDFATYYCQQYNSYSYTFGQGTKLEIK
notes: also called 382S Fab
In assay [1], B4 showed a Kd of 26 nM, a koff of 0.000422 s⁻¹ and a kon of 16200 M⁻¹ s⁻¹. In addition, in assay [2], the Kd was determined as 31.3 nM, the koff was determined as 0.000452 s⁻¹ and the kon turned out to be 14500 M⁻¹ s⁻¹.

B5: Fab generated from 377S (Fab, V domains shown)
VH: QVQLVQSGAEVKKPGSSVKVSCKASGGTFSNYAINWVRQAPGQGLEWMGRTIPFLGLTNYAENFQARVTITADKSTGTSYMQLSSLRSEDTAVYFCAKAATSGWSPFDNWGQGTLVTVSS
VL: EIVLTQSPGTLSLSPGERATLSCRASQSISSSYFGWYQQKPGQAPRLLIYGASRRAAGIPDRFSCSGSGTDFTLTISRLEPEDFGVYYCQQYGSSPTFGQGTKVEIK
For B5, in assay [1], binding was characterised by a dissociation constant (Kd) of 36.7 nM, the koff turned out to be 0.000631 s⁻¹ and the on-rate constant (kon) is 17200 M⁻¹ s⁻¹. In assay [2], this molecule came in with a Kd of 63.7 nM, an off-rate constant (koff) of 0.000571 s⁻¹ and a kon of 8970 M⁻¹ s⁻¹.

B6: Fab generated from 365S (Fab, V domains shown)
VH: EVQLVESGGGLVQPGGSLRLSCAASGLTFSAYEMNWVRQAPGKGLEWVSHITTSGSAIYYADSVKGRFTISRDNAKNSLHLQMNRLRADDTAVYFCARDSTIVQCSGTSCHVSTYSYMDVWGKGTTVTVSS
VL: EIVLTQSPATLSLSPGERATLSCRASQSVTTYLAWYQHKPGQAPRLLIYDASKRATGIPARFSGSGSGTDFTLTISSLEPEDFAVYHCQQRSSWPPITFGQGTRLEIK
notes: also called 365S Fab
B6: in assay [1], the Kd is 102 nM, the koff was 0.00171 s⁻¹ and the association rate constant (kon) is 16800 M⁻¹ s⁻¹. For the same molecule, in assay [2], the Kd was 57.7 nM, the off-rate (koff) was found to be 0.00362 s⁻¹ and the on-rate (kon) was determined as 62800 M⁻¹ s⁻¹.

B7: Fab generated from 315S (Fab, V domains shown)
VH: EVQLVESGGGVVQPGRSLRLSCAASGFTFKTYTMHWVRQAPGKGLEWVAVITDDGVNKKYADSVKGRFTISRDNSKNTLYLQMNSLRLEDTAVYYCARSVVVLAAYPLDYWGQGTMVTVSS
VL: DIQMTQSPSSLSASVGDRVTITCRASQTISTYLHWYQQRPGKAPKLLIYAASSLQSGVPSRVSGSGSGTDFTLTITSLQPEDFATYYCLQTYSLPLTFGGGTNVEIK
notes: also called 315S Fab
With B7, in assay [1], binding was put at a Kd of 8.37 nM, the off-rate constant (koff) was 0.000303 s⁻¹ and the on-rate (kon) was 36200 M⁻¹ s⁻¹. In assay [2], this molecule had a Kd of 4.26 nM, a koff of 8.93e-05 s⁻¹ and a kon of 21000 M⁻¹ s⁻¹.

B8: Fab generated from 578S (Fab, V domains shown)
VH: EVQLVESGGGVVQPGRSLRLSCAASGFTFSSYELHWVRQAPGKGLEWVAVISYDGSSKYYADSLKGRFTISRDNSKNTLSLQMNSLRAEDTAMYYCVRQSEAYCSDGRCDWRRALDIWGQGTMVTVSP
VL: DIQMTQSPSSLSASVGDRVTITCQASQDIKNYLNWYQQKPGKAPKLLIYDVSKLETGVPSRFSGSGSGTDFSFTISSLQPEDIATYYCQQYDNLPSYTFGQGTKLEIK
notes: also called 578S Fab
Turning to B8, in assay [1], the Kd is 97.1 nM, the koff stood at 0.000404 s⁻¹ and the kon is 4200 M⁻¹ s⁻¹. Further, in assay [2], the equilibrium dissociation constant (Kd) worked out at 334 nM, the off-rate (koff) was found to be 0.000695 s⁻¹ and the kon was 2100 M⁻¹ s⁻¹.

B9: Fab generated from 523S (Fab, V domains shown)
VH: QVQLVQSGAELKKPGASVKVSCKASGYTFSDHYVHWVRQAPGQGLEWMGRINPNSGGTNYAQRFLGRVTMTRDASISTAYLDLSSLRSDDTAVYYCARSSSSWSGHYYYYMDVWGKGTTVTVSS
VL: QSVLTQPPSVSAAPGQRVTISCSGSTSNIASNFVSWYQQLPGTAPKLLIYDNHKRPSGIPDRFSGSKSGTSATLGITGLQTGDEADYYCGTWDSSLSAGVFGGGTKVTVL
notes: also called 523S Fab
In assay [3], B9 had a Kd of 1.61 nM, a dissociation rate constant (koff) of 0.000148 s⁻¹ and an association rate constant (kon) of 91900 M⁻¹ s⁻¹. In assay [4], this molecule displayed a Kd of 1.58 nM, a koff of 0.000103 s⁻¹ and a kon of 65400 M⁻¹ s⁻¹.

B10: Fab generated from 338S (Fab, V domains shown)
VH: EVQLVESGGGVVQPGRSLRLSCAASGFTFSQYGMHWVRQAPGKGLECVAVIWFDGSKKYYGDSVKGRFTISRDNSKNTLYLQMNSLRAEDTAVYFCARESLYYYDSGGHYYERGRIDYWGQGTLVTVSS
VL: DIQMTQSPSSLSASVGDRVTITCRASQDISNFLAWFQQKPGKAPKSLIYAASSLLSGVPSKFSGSGSGTDFTLTISSLQPEDFATYYCQQYNSYPPTFGQGTKLEIK
In assay [1], B10 had a Kd of 27.4 nM, an off-rate (koff) of 0.000632 s⁻¹ and a kon of 23100 M⁻¹ s⁻¹. For the same molecule, in assay [2], binding was put at a Kd of 23.7 nM, the off-rate constant (koff) came to 0.000418 s⁻¹ and the association rate constant (kon) amounted to 17600 M⁻¹ s⁻¹.

B11: Fab generated from 285S (Fab, V domains shown)
VH: QVQLVQSGAEVKKPGSSVKVSCKASGGTFSTYAITWVRQAPGQGLEWMGRIIPILRVANYAQKFQGRVTITADSSTSTAYMELSSLRSEDTAVYYCANLLAYCGGDCRSDYWGQGTLVTVSS
VL: EIVLTQSPGTLSLSPGERATLSCRASQSVKNSYLAWYHQKPGQAPRLLIYGASSRATGIPDRFSGSGSGTDFTLTISRLEPEDFAVYYCQQYGSSLWTFGQGTKVDVK
In assay [1], B11 displayed a Kd of 6.11 nM, a koff of 0.000258 s⁻¹ and a kon of 42200 M⁻¹ s⁻¹. In assay [2], the Kd amounted to 18.2 nM, the off-rate (koff) came out at 0.000305 s⁻¹ and the kon is 16800 M⁻¹ s⁻¹.

B12: Fab generated from 335S (Fab, V domains shown)
VH: EVQLVESGGGVVQPGRSLRLSCAASGFSFSNYAMHWVRQAPGKGLEWVAVTWYDGSSKYHADSVKGRFTISRDNSKNTLYLQMNSLRAEDTAVYYCARWGMGIVASPGNVLNYYYFMDVWGQGTTVIVSS
VL: SYELTQPPSVSVSPGQTARITCSGNPLPKKHTYWYQQKPGQAPVLMIYKDSERPSRIPERFSGSSSGTTVTLTISGVQAEDEADYYCQSADSTGIVVFGGGTKLTVL
notes: also called 335S Fab
In assay [1], B12 had an equilibrium dissociation constant (Kd) of 5.6 nM, a koff of 0.000496 s⁻¹ and an association rate constant (kon) of 88500 M⁻¹ s⁻¹. Also, in assay [2], the dissociation constant (Kd) turned out to be 12.6 nM, the koff was 0.000352 s⁻¹ and the on-rate (kon) turned out to be 27800 M⁻¹ s⁻¹.

B13: Fab generated from 573S (Fab, V domains shown)
VH: EVQLVESGGGLVKPGGSLRLSCAASGFTFSSYTMNWVRQAPGKGLEWVSCIRSSSSDKYYADSVKGRFTISRDNTKNSLYLQMNSLRADDTAVYYCARDLGGANNRYYFDYGMDVWGQGTTVTVSS
VL: EIVMTQSPATLSVSPGGRATLSCRASQSVYTNLAWYQQKPGQAPRLLIYDASTRATGIPARFSGSGSGTEFTLTISSLQCEDFAVYYCQHYNNWPLYTFGQGTKLEIK
notes: also called 573S Fab
On to B13, for which, in assay [3], the Kd is 24.1 nM, the off-rate (koff) was determined as 0.000252 s⁻¹ and the kon was found to be 10500 M⁻¹ s⁻¹. In assay [4], this molecule displayed an equilibrium dissociation constant (Kd) of 9.27 nM, a dissociation rate constant (koff) of 0.000105 s⁻¹ and a kon of 11300 M⁻¹ s⁻¹.
